Results reported in publication PMC2705707 (Journal of Structural and Functional Genomics, 2009).

B1: YidH (natural protein, E. coli, UniProt P0ADM0 1-115, looked up)
chain: MKISRLGEAPDYRFSLANERTFLAWIRTALGFLAAGVGLDQLAPDFATPVIRELLALLLCLFSGGLAMYGYLRWLRNEKAMRLKEDLPYTNSLLIISLILMVVAVIVMGLVLYAG
B2: YgaP (natural protein, E. coli, UniProt P55734 1-174, looked up)
chain: MALTTISPHDAQELIARGAKLIDIRDADEYLREHIPEADLAPLSVLEQSGLPAKLRHEQIIFHCQAGKRTSNNADKLAAIAAPAEIFLLEDGIDGWKKAGLPVAVNKSQPLPLMRQVQIAAGGLILIGVVLGYTVNSGFFLLSGFVGAGLLFAGISGFCGMARLLDKMPWNQRA

Target: the molecule itself
Test: SEC + other: SDS-PAGE

Row | Protein | stoichiometry N
1 | B1 | 2
2 | B2 | 2
